Results reported in the supplement of paper PMC9732359.
± gives the uncertainty stated by the source.

assay: protein stability index of a GFP-peptide fusion (yeast GPS) (PSI 1-4); higher = more stable; sorted into four equal gates, so the index is relative within each strain; settings: ubr1∆
Method in brief: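 Peptides tiling yeast proteins in 17-residue segments were fused downstream of GFP, with Cherry expressed from the same plasmid. As a pooled library in yeast, mid-log cultures grown in leucine-free medium were sorted into four equal gates by GFP/Cherry fluorescence ratio. Gate plasmids were PCR-amplified and Illumina-sequenced, and barcodes linked reads to strains. Each peptide received a protein stability index equal to the sum of each gate's read frequency times its gate number.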

Sequence | protein stability index
SALELVGQLNKVVDQLF [RPN6] | 2.68 ± 0.042
SASFSLKNGDKPHMLKF [RPL6A] | 3.13 ± 0.033
SASLFKQRKNPRRIAWT [RPL24A] | 3.08 ± 0.059
SASSLVITALKEPPRDR [RPL12A] | 2.22 ± 0.052
SATPNAAAFSQQQNASS [GAL11] | 3.09 ± 0.041
SATSTTEQTKSKNPLSL [YLR335W/NUP2] | 2.96 ± 0.044
SCHGHFGHLKLALPVFH [RPO31] | 1.18 ± 0.035
SDDIAENDNLDNVSKNA [YCG1] | 3.23 ± 0.085
SDEEESVLDEQEQYQTN [SNU114] | 3.31 ± 0.069
SDIVLDKKVTLITSEMF [SIN4] | 2.14 ± 0.073
SDKESNAYGFIEWCSRC [YJL039C/NUP192] | 2.73 ± 0.063
SDKQRRLLAKDAMIAQR [DIS3] | 2.46 ± 0.049
SDLLVAPPLENENSNCL [YML103C/NUP188] | 3.18 ± 0.11
SDNISRKYEISFGKIYV [RPB2] | 2.72 ± 0.072
SDNSEEEEVDIDMDKLN [RRP43] | 3.11 ± 0.05
SDNVYLKLLVKLYTFLA [RPL18A] | 2.43 ± 0.084
SDPESERPAIEFETPTF [RPN14] | 3.15 ± 0.053
SDSNANAAVAGVANTDT [SWI3] | 2.91 ± 0.061
SDSSKPAFSFGTKSNEK [YJL041W/NSP1] | 2.75 ± 0.041
SDTLKEFKIEQNNEQNP [YDL116W/NUP84] | 3.3 ± 0.22
SDVSDFEGWGHEYIRHL [RPN1] | 3.37 ± 0.15
SEDHSFRKIKLRVDEVQ [RPS1A] | 3.22 ± 0.071
SEDHSFRKVKLRVDEVQ [RPS1B] | 3.1 ± 0.067
SEEINQYVTQIEQEKQE [PRE6] | 2.62 ± 0.086
SEEVDDLSMVPKMKDEE [SNF2] | 3.59 ± 0.22

Sequence | protein stability index
SEFANQNQGGAQAPFDI [ROX3] | 3.48 ± 0.094
SEKNKRQSKSSGKSNTS [ITC1] | 3.16 ± 0.1
SENAPSASSKEFNFTNL [YAR002W/NUP60] | 2.99 ± 0.056
SENRNNIKSSISNGNLA [YOR098C/NUP1] | 3.17 ± 0.24
SEQKMKEDADLKRMEIL [SIR4] | 3.28 ± 0.073
SERDSKDRYINGDKKVD [YMR129W/POM152] | 3.1 ± 0.1
SETPLQKTVNLKNIMKV [RPN4] | 2.48 ± 0.043
SETREKELESIDVLLEQ [RPB4] | 3 ± 0.095
SEVANNGLIISWSNGKI [RRP42] | 2.54 ± 0.14
SEYKVAFPHLYNSRPRS [PRP8] | 2.77 ± 0.06
SFAKLVPCEGKDVTQGL [SMC2] | 1.86 ± 0.08
SFATATCVTCHWNLPGE [SIR2] | 1.92 ± 0.064
SFDVAISTACPRLDDVV [SMC4] | 3.11 ± 0.078
SFFHQSNMQKSLLPYYH [RPN3] | 1.9 ± 0.03
SFGNREEFINKLVKAMN [RPL7B] | 2.75 ± 0.073
SFGNREEFINKLVKSMN [RPL7A] | 2.76 ± 0.071
SFLEGSKALNSILESSM [RGR1] | 2.02 ± 0.13
SFLESVIRDSVTYTEHA [HHF1] | 2.47 ± 0.049
SFLGYLRYVKQIEGPFL [ISW2] | 2.4 ± 0.04
SFPILDQCVGQVGLNFE [YMR129W/POM152] | 3.02 ± 0.07
SFRIKQKMAKAKKQNRP [RPL39] | 2.93 ± 0.092
SFSLTTFSPSGKLGQID [PRE8] | 3.08 ± 0.073
SFSLTVSKEQFLKDADV [YJL039C/NUP192] | 1.64 ± 0.045
SFTLLNQLSQTNKLLFK [NUT1] | 2.33 ± 0.057
SFTYELKQHNQNNLPPN [BRR2] | 2.9 ± 0.12

Sequence | protein stability index
SFVFGQAAAKPSLEKSS [YLR335W/NUP2] | 2.67 ± 0.09
SGEDTNVGLPILKSLKN [YOR098C/NUP1] | 3.28 ± 0.12
SGGGDSEVQRTMLELLN [RPT6] | 3.42 ± 0.066
SGGNNTATIINNESSDD [PCI8] | 3.17 ± 0.055
SGHDDLVHDVVYDFYGR [YGL100W/SEH1] | 2.5 ± 0.065
SGKARICIVGGYDDFQE [FAS2] | 1.56 ± 0.17
SGMGPDYRVLVDKSRKV [PRE8] | 2.98 ± 0.24
SGQTPVQSKARYTVRTF [RPL11A] | 1.71 ± 0.089
SHDKKTKCSTVVKASEL [SRP14] | 3.33 ± 0.11
SHSLALNEITNSKVNKL [DSN1] | 2.54 ± 0.033
SHTDQPANVLLVQSLND [NNF1] | 2.7 ± 0.09
SIFAMGLCGAGTNNARL [RPN1] | 1.12 ± 0.039
SIFEDAIKELNYNRIAK [NUT1] | 2.92 ± 0.12
SIGSDILTAEKMRGNGN [RRP4] | 3.32 ± 0.062
SIIGNKNNNYTWEECVF [REC8] | 2.43 ± 0.11
SILDDIKLSLKDKTKNI [SMC4] | 3 ± 0.062
SILEEKIAVLNNDKREI [SMC1] | 3.33 ± 0.061
SILGKFCPIVEEIVSNS [YCS4] | 1.55 ± 0.066
SIMPDLYFYRNPEEVEQ [RPS0B] | 2.85 ± 0.06
SIMVELKLPLEINYAFS [SIR3] | 1.5 ± 0.058
SIPNLFPTDLEIFQLFT [SWI1] | 3.09 ± 0.19
SIVEECDARFDEKTIEE [RPC17] | 2.68 ± 0.21
SIVHINSQERVQDLGSA [SIR2] | 2.59 ± 0.048
SKALLREISNFSKGDAD [SRP72] | 3.77 ± 0.2
SKAQQKTAEQVAAERAA [RPL7A] | 2.68 ± 0.049

Sequence | protein stability index
SKASMQKEQNVNNRDSE [YCS4] | 2.77 ± 0.042
SKDGLPNKVKTEDIRIR [RRP6] | 2.73 ± 0.046
SKDVQQIDYKLESFQAV [RPS7A] | 3.07 ± 0.038
SKEDYETLKRDRKQSQA [ARP7] | 2.6 ± 0.065
SKEETVDFIKHSLSQAI [PRE3] | 2.7 ± 0.053
SKEFSAYVSGLFEIYRD [YJR042W/NUP85] | 2.31 ± 0.08
SKKETKLQENRTLLTEE [SMC2] | 3.08 ± 0.14
SKKGSLENNIREFPEYF [RPL10] | 3.36 ± 0.069
SKKISNTAAALVSLLDE [YAR002W/NUP60] | 2.78 ± 0.07
SKKIVPSPKKVAIDQDK [SIR4] | 2.92 ± 0.057
SKKRQAEKLVPLPICHA [YML031W/NDC1] | 2.39 ± 0.093
SKLLVPQKNVKIQVVDR [PRE10] | 2.72 ± 0.052
SKMSDESFAELMTKLNS [RPC17] | 3.37 ± 0.12
SKQVTDYYQSIYAKYGA [FAS2] | 2.77 ± 0.041
SKRSKIDIINKLILHAI [YML103C/NUP188] | 1.1 ± 0.079
SKSPSEWQDIIHQREQE [CSE2] | 3.2 ± 0.14
SKTWETYEMRIHKRYID [RPS20] | 3.21 ± 0.072
SKVTVPPSKHSTLTLSD [ESC2] | 3.1 ± 0.098
SKYCEKSLPLLITVMEK [YCS4] | 1.87 ± 0.039
SKYLIKQIDIPNFNVEI [ECM29] | 2.39 ± 0.059
SLAVRSLQDRSSLVRRN [YCS4] | 2.59 ± 0.038
SLFHTAVSVANGFMHAG [RPN2] | 1.57 ± 0.13
SLFTYFREAIVATEPLL [PRP8] | 1.97 ± 0.041
SLISVLEASLNSITKDN [YJL039C/NUP192] | 2.09 ± 0.026
SLKCTDPYELKGEVVLV [ITC1] | 2.96 ± 0.13
